Measurements published in paper PMC6858856.
Like-named read-outs stand apart in the source and are kept apart here.

Key:
[1] = target: FANCB-FAAP100 heterodimer (Gallus gallus) (Gallus gallus); assay: cryo-EM structure
[2] = target: FANCB-FAAP100 heterodimer (Gallus gallus) (Gallus gallus); assay: cryo-EM structure; remark: listed apart in the source

Substance: FANCB-FAAP100 heterodimer (Gallus gallus) (complex)
- stoichiometry N [1]: 2
- stoichiometry N [2]: 2
